Earlier results in article PMC6105697.

Target: NKG2D (Homo sapiens) (UniProt P26718)
Experiment: surface plasmon resonance

UniProt P26718, sequence (P26718 whole entry): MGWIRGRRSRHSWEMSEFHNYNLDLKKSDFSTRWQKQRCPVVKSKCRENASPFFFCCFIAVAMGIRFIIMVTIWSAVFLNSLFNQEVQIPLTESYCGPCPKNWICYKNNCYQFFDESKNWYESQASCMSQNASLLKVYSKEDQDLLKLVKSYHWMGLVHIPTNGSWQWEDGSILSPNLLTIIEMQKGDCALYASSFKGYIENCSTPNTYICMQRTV

Kd: 15.5 nM
Substance: ULBP0602 (from UniProt Q5VY80)
